Results published in publication PMC10999626, “Kinetic modeling of the plasma pharmacokinetic profiles of ADAMTS13 fragment and its Fc-fusion counterpart in mice” (Frontiers in Pharmacology, 2024).

Key:
[1] = target: T1, biotinylated mouse FcRn protein (mouse, UniProt Q61559 22-297, biotin (biotinylated; site not stated)); assay: BLI; biotinylated mouse FcRn (1.0 ug/mL) immobilised on streptavidin biosensor tip; MDTCS-Fc 0.625 to 20 nM in solution; 25 mM acetate, 25 mM NaH2PO4, 150 mM NaCl, 0.01% Tween-20, pH 6.0; association 5 min, dissociation 5 min; Octet Qke; biosensors without FcRn subtracted; conditions: both partners purified
T1 construct: neonatal Fc receptor (FcRn), mouse; also called mouse neonatal Fc-receptor; source: bought: Acro Biosystems
T1 sequence (looked up): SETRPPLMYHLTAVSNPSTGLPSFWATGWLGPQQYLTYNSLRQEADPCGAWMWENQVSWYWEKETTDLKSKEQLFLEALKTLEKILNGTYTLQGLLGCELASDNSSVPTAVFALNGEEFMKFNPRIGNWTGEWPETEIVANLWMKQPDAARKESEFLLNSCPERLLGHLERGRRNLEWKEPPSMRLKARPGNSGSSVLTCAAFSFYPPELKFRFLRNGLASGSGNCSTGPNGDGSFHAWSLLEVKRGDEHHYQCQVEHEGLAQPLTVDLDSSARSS

[2] = target: T1, biotinylated mouse FcRn protein; assay: as above; conditions: both partners purified; remark: listed apart in the source

B1: MDTCS-Fc (Fc fusion)
chain: AAGGILHLELLVAVGPDVFQAHQEDTERYVLTNLNIGAELLRDPSLGAQFRVHLVKMVILTEPEGAPNITANLTSSLLSVCGWSQTINPEDDTDPGHADLVLYITRFDLELPDGNRQVRGVTQLGGACSPTWSCLITEDTGFDLGVTIAHEIGHSFGLEHDGAPGSGCGPSGHVMASDGAAPRAGLAWSPCSRRQLLSLLSAGRARCVWDPPRPQPGSAGHPPDAQPGLYYSANEQCRVAFGPKAVACTFAREHLDMCQALSCHTDPLDQSSCSRLLVPLLDGTECGVEKWCSKGRCRSLVELTPIAAVHGRWSSWGPRSPCSRSCGGGVVTRRRQCNNPRPAFGGRACVGADLQAEMCNTQACEKTQLEFMSQQCARTDGQPLRSSPGGASFYHWGAAVPHSQGDALCRHMCRAIGESFIMKRGDSFLDGTRCMPSGPREDGTLSLCVSGSCRTFGCDGRMDSQQVWDRCQVCGGDNSTCSPRKGSFTAGRAREYVTFLTVTPNLTSVYIANHRPLFTHLAVRIGGRYVVAGKMSISPNTTYPSLLEDGRVEYRVALTEDRLPRLEEIRIWGPLQEDADIQVYRRYGEEYGNLTRPDITFTYFQPKPRQAEPKSCDKTHTCPPCPAPEFLGGPSVFLFPPKPKDTLYITREPEVTCVVVDVSQEDPEVQFNWYVDGVEVHNAKTKPREEQFNSTYRVVSVLTVLHQDWLNGKEYKCKVSNKGLPSSIEKTISKAKGQPREPQVYTLPPSQEEMTKNQVSLTCLVKGFYPSDIAVEWESNGQPENNYKTTPPVLDSDGSFFLYSRLTVDKSRWQEGNVFSCSVMHEALHNHYTQKSLSLSL
koff [1]: 1.96e-06 s⁻¹
Kd [2]: 0.144 ± 0.022 nM
